This is an account of results in patent US20180334480A1 (RAMOT AT TEL AVIV UNIVERSITY, published 2018).

The target in this test is human ACE2 protein (Angiotensin-Converting Enzyme 2) (human, UniProt Q9BYF1 18-740). As to the kind of experiment: phage-displayed construct probed with ACE2.
Chain of human ACE2 protein (Angiotensin-Converting Enzyme 2) (Q9BYF1 18-740 limits assumed): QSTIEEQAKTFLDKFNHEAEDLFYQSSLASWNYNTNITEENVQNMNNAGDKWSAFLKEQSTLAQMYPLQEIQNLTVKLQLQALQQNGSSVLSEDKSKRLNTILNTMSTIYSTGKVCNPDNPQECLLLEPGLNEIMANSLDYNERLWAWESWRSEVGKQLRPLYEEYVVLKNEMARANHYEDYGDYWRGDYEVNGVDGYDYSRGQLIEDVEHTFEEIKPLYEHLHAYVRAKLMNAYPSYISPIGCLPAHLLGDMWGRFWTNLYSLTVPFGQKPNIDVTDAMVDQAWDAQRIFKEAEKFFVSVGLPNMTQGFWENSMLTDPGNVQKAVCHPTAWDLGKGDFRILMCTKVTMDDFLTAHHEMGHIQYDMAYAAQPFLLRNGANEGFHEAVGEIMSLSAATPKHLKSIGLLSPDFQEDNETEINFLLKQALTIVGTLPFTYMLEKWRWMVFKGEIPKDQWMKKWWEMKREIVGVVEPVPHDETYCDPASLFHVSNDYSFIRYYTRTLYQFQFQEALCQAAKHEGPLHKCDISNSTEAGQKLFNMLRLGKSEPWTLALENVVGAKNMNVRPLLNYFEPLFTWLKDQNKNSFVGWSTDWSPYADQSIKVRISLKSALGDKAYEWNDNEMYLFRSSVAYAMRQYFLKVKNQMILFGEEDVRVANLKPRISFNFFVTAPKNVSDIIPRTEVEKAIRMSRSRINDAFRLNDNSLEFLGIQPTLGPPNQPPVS

B1: initial SARS CoV RBM construct (residues S432-T486) displayed on fth-1 phage (other)
chain: STGNYNYKYRYLRHGKLRPFERDISNVPFSPDGKPCTPPALNCYWPLNDYGFYTT
B1: the binding result is listed as “no binding”.
